Common to all, as to type: biochemical
The nature of data set [1]: HTP-analysis of supernatants pretreated with acid (MUGal hydrolysis). To be noted: challenge at pH 4.2; activity of the variant/activity of WT GLA (SEQ ID NO: 5); yeast supernatant. The method in brief:
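Fluorescence of MUGal hydrolysis (Ex. 355 nm, Em. 448 nm) is read after sodium carbonate quench. The enzyme source is INVSc1 yeast culture supernatant, first exposed to pH 3.3-4.3 McIlvaine buffer at 37° C. for 1-3 h, then reacted at pH 4.8 for 30-180 minutes.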

Data set [2] in a line: HTP-analysis of supernatants pretreated with base (MUGal hydrolysis). To be noted: challenge at pH 7.1; activity of the variant/activity of WT GLA (SEQ ID NO: 5); yeast supernatant. The method in brief:
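GLA variants were secreted by transformed INVSc1 yeast grown 66-84 h at 30° C. Supernatants were exposed to neutral-to-basic buffers (pH 7.0-9.7) at 37° C for 1-18 h, then assayed with MUGal in acidic citrate/McIlvaine buffer, with fluorescence read after quenching.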

The nature of data set [3]: HTP-analysis of yeast culture supernatants, no challenge (MUGal hydrolysis). To be noted: activity of the variant/activity of WT GLA (SEQ ID NO: 5), yeast supernatant. The essentials:
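GLA variants were expressed in INVSc1 yeast grown in SD-Ura broth with glucose at 30° C., and culture supernatants were collected after 66-84 h. Supernatant was mixed with McIlvaine buffer pH 4.8 and MUGal (2 mM stock) in 50 mM citrate, 200 mM KCl, pH 4.6, incubated at 37° C. for 30-180 minutes, then quenched with sodium carbonate.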

B1: 110 (protein)
chain: LDNGLARTPTMGWLHWERFMCNLDCQEEPDSCISEKLFMEMAELMVSEGWKDAGYEYLCIDDCWMAPQRDSEGRLQADPQRFPHGIRQLANYVHSKGLKLGIYADVGNKTCAGFPGSFGYYDIDAQTFADWGVDLLKFDGCYCDSLENLADGYKHMSLALNRTGRSIVYSCEWPLYMWPFQKPNYTEIRQYCNHWRNFADIDDSWKSIKSILDWTSFNQERIVDVAGPGGWNDPDMLVIGNFGLSWNQQVTQMALWAIMAAPLFMSNDLRHISPQAKALLQDKDVIAINQDPLGKQGYQLRQGDNFEVWERPLSGLAWAVAMINRQEIGGPRSYTIAVASLGKGVACNPACFITQLLPVKRKLGFYEWTSRLRSHINPTGTVLLQLENTMQMSKDLDL
modifications: Synthetic Polypeptide sequence of Variant No. 110 of mature Human GLA
For B1, the “Relative Activity of GLA Variants After Challenge at pH 4.2” value (from here on “Relative Activity … at pH 4.2”) in data set [1] was “++ (++ = >1.5 to 2.5 relative activity over WT GLA (SEQ ID NO: 5))”. In data set [2], the “Relative Activity of GLA Variants After Challenge at pH 7.1” value (shortened to “Relative Activity … at pH 7.1”) was “+++ (+++ = >2.5 relative activity over WT GLA (SEQ ID NO: 5))”. In addition, the “Relative Activity of GLA Variants After No Challenge (NC)” value in data set [3] is on record as “+++ (+++ = >2.5 relative activity over WT GLA (SEQ ID NO: 5))”.

B2: 113 (protein)
chain: LDNGLARTPTMGWLHWERFMCNLDCQEEPDSCISEKLFMEMAELMVSEGWKDAGYEYLCIDDCWMAPQRDSEGRLQADPQRFPHGIRQLANYVHSKGLKLGIYADVGNKTCAGFPGSFGYYDIDAQTFADWGVDLLKFDGCYCDSLENLADGYKHMSLALNRTGRSIVYSCEWPLYMWPFQKPNYTEIRQYCNHWRNFADIDDSWKSIKSILDWTSFNQERIVDVAGPGGWNDPDMLVIGNFGLSWNQQVTQMALWAIMAAPLFMSNDLRHISPQAKALLQDKDVIAINQDPLGKQGYQLRQGDNFEVWERPLSGLAWAVAMINRQEIGGPRSYTIAVASLGKGVACNPACFITQLLPVKRKLGFYEWTSRLRSHINPTGTVLLQLENTMQMSKDLQL
modifications: Synthetic Polypeptide sequence of Variant No. 113 of mature Human GLA
B2: in data set [1], the “Relative Activity … at pH 4.2” value was “+ (+ = 0.5 to 1.5 relative activity over WT GLA (SEQ ID NO: 5))”. Moreover, the “Relative Activity … at pH 7.1” value in data set [2] was “+++ (+++ = >2.5 relative activity over WT GLA (SEQ ID NO: 5))”. In addition, the “Relative Activity of GLA Variants After No Challenge (NC)” value in data set [3] is “++ (++ = >1.5 to 2.5 relative activity over WT GLA (SEQ ID NO: 5))”.

B3: 114 (protein)
chain: LDNGLARTPTMGWLHWERFMCNLDCQEEPDSCISEKLFMEMAELMVSEGWKDAGYEYLCIDDCWMAPQRDSEGRLQADPQRFPHGIRQLANYVHSKGLKLGIYADVGNKTCAGFPGSFGYYDIDAQTFADWGVDLLKFDGCYCDSLENLADGYKHMSLALNRTGRSIVYSCEWPLYMWPFQKPNYTEIRQYCNHWRNFADIDDSWKSIKSILDWTSFNQERIVDVAGPGGWNDPDMLVIGNFGLSWNQQVTQMALWAIMAAPLFMSNDLRHISPQAKALLQDKDVIAINQDPLGKQGYQLRQGDNFEVWERPLSGLAWAVAMINRQEIGGPRSYTIAVASLGKGVACNPACFITQLLPVKRKLGFYEWTSRLRSHINPTGTVLLQLENTMQMSKDLRL
modifications: Synthetic Polypeptide sequence of Variant No. 114 of mature Human GLA
Turning to B3, in data set [1], the “Relative Activity … at pH 4.2” value is reported as “++ (++ = >1.5 to 2.5 relative activity over WT GLA (SEQ ID NO: 5))”. Also, the “Relative Activity … at pH 7.1” value in data set [2] was “++ (++ = >1.5 to 2.5 relative activity over WT GLA (SEQ ID NO: 5))”. Moreover, the “Relative Activity of GLA Variants After No Challenge (NC)” value in data set [3] is listed as “++ (++ = >1.5 to 2.5 relative activity over WT GLA (SEQ ID NO: 5))”.

B4: 115 (protein)
chain: LDNGLARTPTMGWLHWERFMCNLDCQEEPDSCISEKLFMEMAELMVSEGWKDAGYEYLCIDDCWMAPQRDSEGRLQADPQRFPHGIRQLANYVHSKGLKLGIYADVGNKTCAGFPGSFGYYDIDAQTFADWGVDLLKFDGCYCDSLENLADGYKHMSLALNRTGRSIVYSCEWPLYMWPFQKPNYTEIRQYCNHWRNFADIDDSWKSIKSILDWTSFNQERIVDVAGPGGWNDPDMLVIGNFGLSWNQQVTQMALWAIMAAPLFMSNDLRHISPQAKALLQDKDVIAINQDPLGKQGYQLRQGDNFEVWERPLSGLAWAVAMINRQEIGGPRSYTIAVASLGKGVACNPACFITQLLPVKRKLGFYEWTSRLRSHINPTGTVLLQLENTMQMSKDLTL
modifications: Synthetic Polypeptide sequence of Variant No. 115 of mature Human GLA
For the molecule B4, in data set [1], the “Relative Activity … at pH 4.2” value is listed as “++ (++ = >1.5 to 2.5 relative activity over WT GLA (SEQ ID NO: 5))”. Moreover, the “Relative Activity … at pH 7.1” value in data set [2] is “+++ (+++ = >2.5 relative activity over WT GLA (SEQ ID NO: 5))”. Moreover, the “Relative Activity of GLA Variants After No Challenge (NC)” value in data set [3] is on record as “++ (++ = >1.5 to 2.5 relative activity over WT GLA (SEQ ID NO: 5))”.

B5: 111 (protein)
chain: LDNGLARTPTMGWLHWERFMCNLDCQEEPDSCISEKLFMEMAELMVSEGWKDAGYEYLCIDDCWMAPQRDSEGRLQADPQRFPHGIRQLANYVHSKGLKLGIYADVGNKTCAGFPGSFGYYDIDAQTFADWGVDLLKFDGCYCDSLENLADGYKHMSLALNRTGRSIVYSCEWPLYMWPFQKPNYTEIRQYCNHWRNFADIDDSWKSIKSILDWTSFNQERIVDVAGPGGWNDPDMLVIGNFGLSWNQQVTQMALWAIMAAPLFMSNDLRHISPQAKALLQDKDVIAINQDPLGKQGYQLRQGDNFEVWERPLSGLAWAVAMINRQEIGGPRSYTIAVASLGKGVACNPACFITQLLPVKRKLGFYEWTSRLRSHINPTGTVLLQLENTMQMSKDLHL
modifications: Synthetic Polypeptide sequence of Variant No. 111 of mature Human GLA
As to B5, the “Relative Activity … at pH 4.2” value in data set [1] is reported as “++ (++ = >1.5 to 2.5 relative activity over WT GLA (SEQ ID NO: 5))”. Moreover, the “Relative Activity … at pH 7.1” value in data set [2] is listed as “++ (++ = >1.5 to 2.5 relative activity over WT GLA (SEQ ID NO: 5))”. Moreover, in data set [3], the “Relative Activity of GLA Variants After No Challenge (NC)” value is recorded as “++ (++ = >1.5 to 2.5 relative activity over WT GLA (SEQ ID NO: 5))”.

B6: 112 (protein)
chain: LDNGLARTPTMGWLHWERFMCNLDCQEEPDSCISEKLFMEMAELMVSEGWKDAGYEYLCIDDCWMAPQRDSEGRLQADPQRFPHGIRQLANYVHSKGLKLGIYADVGNKTCAGFPGSFGYYDIDAQTFADWGVDLLKFDGCYCDSLENLADGYKHMSLALNRTGRSIVYSCEWPLYMWPFQKPNYTEIRQYCNHWRNFADIDDSWKSIKSILDWTSFNQERIVDVAGPGGWNDPDMLVIGNFGLSWNQQVTQMALWAIMAAPLFMSNDLRHISPQAKALLQDKDVIAINQDPLGKQGYQLRQGDNFEVWERPLSGLAWAVAMINRQEIGGPRSYTIAVASLGKGVACNPACFITQLLPVKRKLGFYEWTSRLRSHINPTGTVLLQLENTMQMSKDLIL
modifications: Synthetic Polypeptide sequence of Variant No. 112 of mature Human GLA
Take B6: in data set [1], the “Relative Activity … at pH 4.2” value is “++ (++ = >1.5 to 2.5 relative activity over WT GLA (SEQ ID NO: 5))”. In data set [2], the “Relative Activity … at pH 7.1” value is reported as “+ (+ = 0.5 to 1.5 relative activity over WT GLA (SEQ ID NO: 5))”. For the same molecule, in data set [3], the “Relative Activity of GLA Variants After No Challenge (NC)” value is “+ (+ = 0.5 to 1.5 relative activity over WT GLA (SEQ ID NO: 5))”.

B7: 116 (protein)
chain: LDNGLARTPTMGWLHWERFMCNLDCQEEPDSCISEKLFMEMAELMVSEGWKDAGYEYLCIDDCWMAPQRDSEGRLQADPQRFPHGIRQLANYVHSKGLKLGIYADVGNKTCAGFPGSFGYYDIDAQTFADWGVDLLKFDGCYCDSLENLADGYKHMSLALNRTGRSIVYSCEWPLYMWPFQKPNYTEIRQYCNHWRNFADIDDSWKSIKSILDWTSFNQERIVDVAGPGGWNDPDMLVIGNFGLSWNQQVTQMALWAIMAAPLFMSNDLRHISPQAKALLQDKDVIAINQDPLGKQGYQLRQGDNFEVWERPLSGLAWAVAMINRQEIGGPRSYTIAVASLGKGVACNPACFITQLLPVKRKLGFYEWTSRLRSHINPTGTVLLQLENTMQMSKDLLE
modifications: Synthetic Polypeptide sequence of Variant No. 116 of mature Human GLA
On to B7, for which, in data set [1], the “Relative Activity … at pH 4.2” value was “++ (++ = >1.5 to 2.5 relative activity over WT GLA (SEQ ID NO: 5))”. Besides, the “Relative Activity … at pH 7.1” value in data set [2] was “++ (++ = >1.5 to 2.5 relative activity over WT GLA (SEQ ID NO: 5))”. The “Relative Activity of GLA Variants After No Challenge (NC)” value in data set [3] was “++ (++ = >1.5 to 2.5 relative activity over WT GLA (SEQ ID NO: 5))”.

B8: 34 (protein)
chain: LDNGLARTPTMGWLHWERFMCNLDCQEEPDSCISEKLFMEMAELMVSEGWKDAGYEYLCIDDCWMAPQRDSEGRLQADPQRFPHGIRQLANYVHSKGLKLGIYADVGNKTCAGFPGSFGYYDIDAQTFADWGVDLLKFDGCYCDSLENLADGYKHMSLALNRTGRSIVYSCEWPLYMWPFQKPNYTEIRQYCNHWRNFADIDDSWKSIKSILDWTSFNQERIVDVAGPGGWNDPDMLVIGNFGLSWNQQVTQMALWAIMAAPLFMSNDLRHISPQAKALLQDKDVIAINQDPLGKQGYQLRQGDNFEVWERPLSGLAWAVAMINRQEIGGPRSYTIPVASLGKGVACNPACFITQLLPVKRKLGFYEWTSRLRSHINPTGTVLLQLENTMQMSKDLLL
modifications: Synthetic Polypeptide sequence of Variant No. 34 of mature Human GLA
Consider B8, for which the “Relative Activity … at pH 4.2” value in data set [1] is reported as “++ (++ = >1.5 to 2.5 relative activity over WT GLA (SEQ ID NO: 5))”. In addition, the “Relative Activity … at pH 7.1” value in data set [2] was “++ (++ = >1.5 to 2.5 relative activity over WT GLA (SEQ ID NO: 5))”. Also, the “Relative Activity of GLA Variants After No Challenge (NC)” value in data set [3] is listed as “+ (+ = 0.5 to 1.5 relative activity over WT GLA (SEQ ID NO: 5))”.

These data come from patent publication US11278600B2, “Human alpha-galactosidase variants” (Codexis, Inc., priority 2014, dated 2022).
